Results reported in patent US12338483.

Tests used:
[1] = test system: MMP substrate (Example 3)
[2] = test system: MMP substrate of the biocomparator peptide cage (Example 4)
[3] = test system: T1, GzmB/Thrb AND-gate protease activity sensor
T1 sequence: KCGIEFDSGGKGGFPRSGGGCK

[4] = test system: GzmB substrate (individual protease substrate labeled with a fluorescent quencher and dye, nanoparticle-conjugated)
[5] = test system: Thrb substrate (individual protease substrate labeled with a fluorescent quencher and dye, nanoparticle-conjugated)
[6] = test system: GzmB/MMP AND-gate protease activity sensor

Chain of MMP1 (P03956 100-469): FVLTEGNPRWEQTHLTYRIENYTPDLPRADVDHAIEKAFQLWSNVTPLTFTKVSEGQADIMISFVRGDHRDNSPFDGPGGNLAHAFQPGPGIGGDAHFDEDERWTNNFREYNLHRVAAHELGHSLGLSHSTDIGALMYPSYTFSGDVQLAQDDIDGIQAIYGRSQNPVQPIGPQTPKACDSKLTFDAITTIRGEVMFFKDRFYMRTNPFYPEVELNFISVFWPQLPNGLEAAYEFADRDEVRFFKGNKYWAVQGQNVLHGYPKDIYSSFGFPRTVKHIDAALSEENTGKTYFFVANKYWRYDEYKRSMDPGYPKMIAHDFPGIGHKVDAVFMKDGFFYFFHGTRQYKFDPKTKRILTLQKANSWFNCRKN

Substance | change in fluorescence in a cleavage assay (kinetic trace) [1] | change in fluorescence in a cleavage assay (AND-gate sensor) [3] | change in fluorescence in a cleavage assay (quenched substrate) [4] | change in fluorescence in a cleavage assay (quenched substrate) [5] | other results
MMP13 | The substrate was cleaved with high activity by MMP1, MMP8, and MMP13 | – | – | – | –
MMP9 | – | – | – | – | fluorescent cleavage assay [2]: Results also confirmed MMP9 can cleave the MMP substrate by cleavage assay
thrombin (Thrb) | – | The reporter molecule emits a high fluorescent signal when both proteases are present together but not when either protease is present alone | the GzmB substrate was cleaved effectively by GzmB alone | the Thrb substrate was cleaved only by Thrb | –
MMP8 | The substrate was cleaved with high activity by MMP1, MMP8, and MMP13 | – | – | – | fluorescent signal in a cleavage assay (AND-gate sensor with GzmB and a second protease) [6]: The sensor produced low signals with the viral proteases compared to MMP8
granzyme B (GzmB) | – | The reporter molecule emits a high fluorescent signal when both proteases are present together but not when either protease is present alone | the GzmB substrate was cleaved effectively by GzmB alone | the Thrb substrate was cleaved only by Thrb | fluorescent signal in a cleavage assay (AND-gate sensor with each MMP, with and without GzmB) [6]: > 2 fold
MMP1 | The substrate was cleaved with high activity by MMP1, MMP8, and MMP13 | – | – | – | –
